Measured values from US20250032632A1 (published 2025).
Positions count from the first letter of the chain named. Blank lines part the entries; values can stand above or below the molecule they belong to.

Experiments:
[1] = biological target: human cMET-Fc fusion protein (extracellular domain of human cMET fused to human Fc) (human) (UniProt P08581); assay: SPR with hMet-Fc
[2] = biological target: T1, human cMET-Fc fusion protein (extracellular domain of human cMET fused to human Fc) (human, UniProt P08581 25-932); assay: SPR with hMet-Fc
T1 construct: Mature cMET is cleaved into alpha and beta subunits; also called hMET-Fc; hMet-Fc

[3] = biological target: T2, rat cMET (ELISA antigen) (rat, UniProt P97523 25-935, limits assumed); assay: ELISA, cross-reactivity, rat cMET
T2 construct: also called rMET

[4] = biological target: mouse cMET (ELISA antigen) (mouse, UniProt P16056 25-931, limits assumed); assay: ELISA, cross-reactivity, mouse cMET
[5] = biological target: T1, human cMET-Fc fusion protein …; assay: SPR, hMET-Fc
[6] = biological target: T3, rat cMET-Fc (rat, UniProt P97523 25-935); assay: SPR, rMET-Fc
T3 construct: Construct named only as rMET-Fc; also called rMET-Fc; not shown: Fc part

[7] = biological target: T2, rat cMET (ELISA antigen); assay: ELISA on rat cMET, relative to parental P3D12
[8] = biological target: T4, human cMET (ELISA antigen) (human, UniProt P08581 25-932, limits assumed); assay: ELISA on human cMET, relative to parental P3D12
T4 construct: also called hMET

[9] = biological target: T5, Recombinant Human c-Met-10X His (human, UniProt P08581 25-932); assay: ELISA, plate-bound human cMET (FIGS. 17A, 17B)
T5 construct: In-house reagent (Lot #140924TA); not shown: 10X His tag
Text: Relative binding strength is indicated by luminescence (y-axis).

T1 sequence (P08581 25-932): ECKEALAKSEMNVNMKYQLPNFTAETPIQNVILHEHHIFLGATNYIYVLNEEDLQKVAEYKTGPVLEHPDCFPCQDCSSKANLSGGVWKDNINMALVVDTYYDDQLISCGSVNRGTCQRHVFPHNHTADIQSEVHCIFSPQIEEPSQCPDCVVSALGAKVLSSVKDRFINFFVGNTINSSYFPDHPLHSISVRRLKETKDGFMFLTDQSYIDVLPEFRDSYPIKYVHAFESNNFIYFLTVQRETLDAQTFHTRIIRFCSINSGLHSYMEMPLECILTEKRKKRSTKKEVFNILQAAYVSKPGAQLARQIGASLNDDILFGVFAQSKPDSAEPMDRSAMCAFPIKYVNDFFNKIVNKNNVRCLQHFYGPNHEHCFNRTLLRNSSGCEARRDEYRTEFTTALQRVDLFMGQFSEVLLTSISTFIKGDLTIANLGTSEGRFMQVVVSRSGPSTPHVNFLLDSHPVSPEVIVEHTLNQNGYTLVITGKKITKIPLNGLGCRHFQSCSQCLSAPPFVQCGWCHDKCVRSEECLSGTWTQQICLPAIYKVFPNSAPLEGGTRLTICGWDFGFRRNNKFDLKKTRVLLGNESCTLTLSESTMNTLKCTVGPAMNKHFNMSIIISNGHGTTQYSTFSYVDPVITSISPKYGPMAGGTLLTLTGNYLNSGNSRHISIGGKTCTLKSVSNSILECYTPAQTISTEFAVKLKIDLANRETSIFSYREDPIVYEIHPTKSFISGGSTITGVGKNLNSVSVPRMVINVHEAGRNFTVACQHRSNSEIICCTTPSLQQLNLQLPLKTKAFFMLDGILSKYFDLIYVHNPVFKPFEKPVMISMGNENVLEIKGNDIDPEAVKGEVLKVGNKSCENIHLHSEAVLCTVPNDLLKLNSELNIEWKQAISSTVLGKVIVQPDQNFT
T5 sequence (P08581 25-932 limits assumed): as the sequence (P08581 25-932) above
T4 sequence (P08581 25-932 limits assumed): as the sequence (P08581 25-932) above
T2 sequence (P97523 25-935 limits assumed): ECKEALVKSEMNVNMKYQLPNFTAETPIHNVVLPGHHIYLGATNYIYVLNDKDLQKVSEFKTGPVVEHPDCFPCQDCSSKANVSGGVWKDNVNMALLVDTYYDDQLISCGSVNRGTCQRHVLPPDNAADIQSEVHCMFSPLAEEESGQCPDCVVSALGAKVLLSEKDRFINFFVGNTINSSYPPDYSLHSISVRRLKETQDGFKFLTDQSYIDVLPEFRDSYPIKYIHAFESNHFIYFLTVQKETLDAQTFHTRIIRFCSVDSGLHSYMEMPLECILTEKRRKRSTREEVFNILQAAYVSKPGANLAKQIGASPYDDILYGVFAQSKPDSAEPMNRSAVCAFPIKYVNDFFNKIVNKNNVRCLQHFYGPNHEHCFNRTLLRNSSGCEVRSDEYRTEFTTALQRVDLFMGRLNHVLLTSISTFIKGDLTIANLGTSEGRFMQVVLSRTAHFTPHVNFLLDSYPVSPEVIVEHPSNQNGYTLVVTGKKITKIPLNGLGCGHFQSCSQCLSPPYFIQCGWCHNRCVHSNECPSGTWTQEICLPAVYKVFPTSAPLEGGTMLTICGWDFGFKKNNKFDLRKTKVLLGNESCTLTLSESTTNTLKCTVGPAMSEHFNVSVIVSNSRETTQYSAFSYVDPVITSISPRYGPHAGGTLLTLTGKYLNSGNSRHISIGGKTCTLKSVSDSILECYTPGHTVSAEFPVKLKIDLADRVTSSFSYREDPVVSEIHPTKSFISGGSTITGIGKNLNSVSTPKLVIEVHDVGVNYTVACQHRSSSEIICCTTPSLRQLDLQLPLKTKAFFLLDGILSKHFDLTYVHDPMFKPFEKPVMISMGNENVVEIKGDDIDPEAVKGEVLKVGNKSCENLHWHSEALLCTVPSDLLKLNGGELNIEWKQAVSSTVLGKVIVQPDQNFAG
T3 sequence (P97523 25-935 limits assumed): as above
Sequence of mouse cMET (ELISA antigen) (P16056 25-931 limits assumed): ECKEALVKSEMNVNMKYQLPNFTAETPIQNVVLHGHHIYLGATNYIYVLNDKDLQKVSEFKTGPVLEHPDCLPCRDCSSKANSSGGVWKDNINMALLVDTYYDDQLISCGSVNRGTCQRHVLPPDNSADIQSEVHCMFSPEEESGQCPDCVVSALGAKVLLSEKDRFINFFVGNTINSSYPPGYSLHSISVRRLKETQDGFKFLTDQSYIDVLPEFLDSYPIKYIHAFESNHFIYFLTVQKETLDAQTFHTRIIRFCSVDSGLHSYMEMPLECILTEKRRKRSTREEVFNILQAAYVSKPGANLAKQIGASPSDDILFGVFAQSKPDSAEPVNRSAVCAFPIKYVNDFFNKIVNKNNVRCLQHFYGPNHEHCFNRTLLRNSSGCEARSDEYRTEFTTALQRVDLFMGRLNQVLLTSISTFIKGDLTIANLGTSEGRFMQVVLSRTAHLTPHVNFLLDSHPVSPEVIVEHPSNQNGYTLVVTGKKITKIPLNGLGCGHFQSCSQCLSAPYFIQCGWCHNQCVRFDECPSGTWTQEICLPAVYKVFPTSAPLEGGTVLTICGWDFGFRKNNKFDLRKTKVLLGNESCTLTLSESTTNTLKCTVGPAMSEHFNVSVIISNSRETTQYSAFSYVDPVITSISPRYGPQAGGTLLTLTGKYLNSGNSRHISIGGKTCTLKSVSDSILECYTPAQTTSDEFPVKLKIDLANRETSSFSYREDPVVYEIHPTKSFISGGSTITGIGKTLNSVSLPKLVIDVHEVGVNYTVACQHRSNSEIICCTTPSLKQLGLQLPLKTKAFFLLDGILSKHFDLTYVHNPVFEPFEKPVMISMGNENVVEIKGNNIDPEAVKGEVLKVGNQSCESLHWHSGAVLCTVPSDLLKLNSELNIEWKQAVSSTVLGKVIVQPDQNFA
Sequence of human cMET-Fc fusion protein (extracellular domain of human cMET fused to human Fc) (human) (P08581 25-932): as the sequence (P08581 25-932) above

Kd [1]: 0.8 nM
Molecule: 5D5 (antibody)

Kd [2]: 0.16 nM | binding result [3]: no binding | binding result [4]: no binding
B1: F6AP8E2 (antibody, V domains shown)
VH: EVQLQQSGAELVRPGALVKLSCKASGFNINDYFMHWVKQRPEQGLEWIGWIDPENGNTIYDPKFQGKASITADTSSNTAYLQLSSLTSEDTAVYYCARGGNYLRESYYYAMDYWGQGTSVTVSS
VL: DIVMTQSPKSMSMSVGERVTLSCKASENVGTYVSWYQQKPDQSPKLLIYGASNRYTGVPDRFTGSGSATDFTLTISSVQAEDLADYHCGQSYSYPLTFGAGTKLELKR
notes: Mouse monoclonal antibody

Kd [5]: 0.9 nM | Kd [6]: 16 nM | Kd [2]: 0.75 nM | binding result [4]: no binding
B2: F6B1P3D12 (mouse monoclonal anti-cMET antibody) (antibody, V domains shown)
VH: QVQLQQSGAELAKPGASVKMSCRASGYTFTSYWMHWVKQRPGQGLDWIGYIKPSTDNTEYNQKFKDKATLTADKSSSTAYMQLSSLTSEDSAVYYCARSYGNYPLMDYWGQGTSVTVSS
VL: QIVLTQSPAIMSASPGEKVTLTCSASSSVTSNYLYWYQQKPGSSPKLWIYSTSNLASGVPARFSGSGSGTSYSLTISSMEAEDAASYFCHQWSSYPPTFGSGTKLEIKR
notes: Mouse hybridoma antibody (ATCC PTA-125826); also called Mouse P3D12

Kd [5]: 0.7 nM | Kd [6]: 30 nM
B3: Chimeric P3D12 (antibody, V domains shown)
VH: B2 VH
VL: B2 VL
notes: Mouse P3D12 variable regions with human constant regions

Kd [2]: 0.89 nM | binding result [4]: no binding
B4: F6B1P1E2 (antibody, V domains shown)
VH: B2 VH with R23K, D46E, K52N, N57Y, S77T, A97V
VL: B2 VL with T30S, Q38H, A61V
notes: Mouse monoclonal antibody

Kd [2]: 0.48 nM | binding result [4]: no binding
B5: F6BP2D4 (antibody, V domains shown)
VH: B2 VH with R23K, D46E, K52N, N57Y, T58I, D73G, Y103F
VL: B2 VL with T30S, A61V
notes: Mouse monoclonal antibody

Kd [2]: 0.7 nM
B6: ABF46 (antibody, V domains shown)
VH: EVKLVESGGGLVQPGGSLRLSCATSGFTFTDYYMSWVRQPPGKALEWLGFIRNKANGYTTEYSASVKGRFTISRDNSQSILYLQMDTLRAEDSATYYCARDNWFAYWGQGTLVTVSA
VL: DILMTQSPSSLTVSAGEKVTMSCKSSQSLLASGNQNNYLAWHQQKPGRSPKMLIIWASTRVSGVPDRFIGSGSGTDFTLTINSVQAEDLAVYYCQQSYSAPLTFGAGTKLELK

Kd [5]: 0.9 nM | Kd [6]: 31 nM | ELISA rMET vs parental [7]: 2 fold vs parental | ELISA hMET vs parental [8]: 1 fold vs parental
B7: G2ckc (humanized P3D12, VH-cdr + VL-cdr) (antibody, V domains shown)
VH: QVQLVQSGAEVKKPGASVKVSCKASGYTFTSYWMHWVKQAPGQGLDWIGYIKPSTDNTEYNQKFKDKATLTADKSTSTAYMELSSLRSEDTAVYYCARSYGNYPLMDYWGQGTTVTVSS
VL: QIVLTQSPATLSLSPGERATLSCSASSSVTSNYLYWYQQKPGSSPRLLIYSTSNLASGVPARFSGSGSGTSYTLTISRLEPEDFASYFCHQWSSYPPTFGSGTKLEIKR
notes: Humanized and isotype switched version of P3D12

Kd [5]: 0.4 nM | Kd [6]: 30 nM | ELISA rMET vs parental [7]: 1.4 fold vs parental | ELISA hMET vs parental [8]: 1.7 fold vs parental
B8: G2fkf (humanized P3D12, VH-fra + VL-fra) (antibody, V domains shown)
VH: B7 VH with V5Q, A40R, K67R, A68V, E82Q, S85N, R87I, T114S
VL: B7 VL with T10I, R46K, R78S, P81A, F84A
notes: as for B7

Kd [5]: 0.4 nM | Kd [6]: 29 nM | ELISA rMET vs parental [7]: 2.7 fold vs parental | ELISA hMET vs parental [8]: 1.3 fold vs parental
B9: G2cka (humanized P3D12, VH-cdr + VL-abb/sdr) (antibody, V domains shown)
VH: B7 VH
VL: B7 VL with S24R, S27Q, S71D
notes: as for B7

Kd [5]: 0.6 nM | Kd [6]: 23 nM | ELISA rMET vs parental [7]: 0.5 fold vs parental | ELISA hMET vs parental [8]: 1 fold vs parental
B10: G2akf (humanized P3D12, VH-abb/sdr + VL-fra) (antibody, V domains shown)
VH: B7 VH with I48M, N61A, K65Q, D66G, K67R, A68V
VL: B7 VL with T10I, R46K, R78S, P81A, F84A
notes: as for B7

Kd [5]: 0.3 nM | Kd [6]: 8 nM | ELISA rMET vs parental [7]: 1 fold vs parental | ELISA hMET vs parental [8]: 1.1 fold vs parental
B11: G2vkf (humanized P3D12, VH-ven + VL-fra) (antibody, V domains shown)
VH: B7 VH with K12A, V20M, E82Q
VL: B7 VL with T10I, R46K, R78S, P81A, F84A
notes: as for B7

Kd [5]: 0.9 nM | Kd [6]: 26 nM | ELISA rMET vs parental [7]: 1.1 fold vs parental | ELISA hMET vs parental [8]: 0.9 fold vs parental
B12: G2aka (humanized P3D12, VH-abb/sdr + VL-abb/sdr) (antibody, V domains shown)
VH: B7 VH with I48M, N61A, K65Q, D66G, K67R, A68V
VL: B7 VL with S24R, S27Q, S71D
notes: as for B7

Kd [5]: 0.7 nM | Kd [6]: 38 nM | ELISA rMET vs parental [7]: 0.7 fold vs parental | ELISA hMET vs parental [8]: 1.3 fold vs parental
B13: G2akc (humanized P3D12, VH-abb/sdr + VL-cdr) (antibody, V domains shown)
VH: B7 VH with I48M, N61A, K65Q, D66G, K67R, A68V
VL: B7 VL
notes: as for B7

binding result [3]: no binding | binding result [4]: no binding
B14: F5P5B9 (antibody, V domains shown)
VH: QVQLKESGPGLVAPSQSLSITCTVSGFSLTNYGVNWVRQPPGKGLEWLGLIWGGGDTDYNSALKSRLSISKDNSKSQVFLKMETNSLQTDDTARYYCARDYYGFDYWGQGTTLTVSS
VL: DVLMTQTPLSLPVSLGDQASISCRSSQTIVHGTGNTYLEWYLQKPGQSPKLLIYKVSNRFSGVPDRFSGSGSGTDFTLKISRVEAEDLGVYYCFQGSHVPYTFGGGTKLEIKR
notes: Mouse monoclonal antibody

binding result [9]: binds
B15: hD12-II (Antibody hD12 attached to the payload of chemical formula II, stochastic conjugation) (antibody, human IgG2, kappa)
heavy: QVQLVQSGAEVKKPGASVKVSCKASGYTFTSYWMHWVKQAPGQGLDWIGYIKPSTDNTEYNQKFKDKATLTADKSTSTAYMELSSLRSEDTAVYYCARSYGNYPLMDYWGQGTTVTVSSASTKGPSVFPLAPCSRSTSESTAALGCLVKDYFPEPVTVSWNSGALTSGVHTFPAVLQSSGLYSLSSVVTVPSSNFGTQTYTCNVDHKPSNTKVDKTVERKCCVECPPCPAPPVAGPSVFLFPPKPKDTLMISRTPEVTCVVVDVSHEDPEVQFNWYVDGVEVHNAKTKPREEQFNSTFRVVSVLTVVHQDWLNGKEYKCKVSNKGLPAPIEKTISKTKGQPREPQVYTLPPSREEMTKNQVSLTCLVKGFYPSDIAVEWESNGQPENNYKTTPPMLDSDGSFFLYSKLTVDKSRWQQGNVFSCSVMHEALHNHYTQKSLSLSPGK
light: QIVLTQSPAILSLSPGERATLSCSASSSVTSNYLYWYQQKPGSSPKLLIYSTSNLASGVPARFSGSGSGTSYTLTISSLEAEDAASYFCHQWSSYPPTFGSGTKLEIKRTVAAPSVFIFPPSDEQLKSGTASVVCLLNNFYPREAKVQWKVDNALQSGNSQESVTEQDSKDSTYSLSSTLTLSKADYEKHKVYACEVTHQGLSSPVTKSFNRGEC
modifications: payload of chemical formula II on one or more cysteine residues of the antibody at random positions (chain not stated); payload of chemical formula II (pyrrolobenzodiazepine toxin + linking group, maleimide) on one or more cysteine residues of the antibody at random positions
notes: also called hD12-vc-II

binding result [9]: binds
B16: hD12-XI (Antibody hD12 attached to the payload of chemical formula XI, stochastic conjugation) (antibody, human IgG2, kappa)
heavy: B15 heavy
light: B15 light
modifications: payload of chemical formula XI on one or more cysteine residues of the antibody at random positions (chain not stated); payload of chemical formula XI (pyrrolobenzodiazepine toxin + linking group, maleimide) on one or more cysteine residues of the antibody at random positions
notes: Antibody-drug conjugate; also called hD12-vc-XI

binding result [9]: binds
B17: hD12-VI (Antibody hD12 attached to the payload of chemical formula VI, stochastic conjugation) (antibody, human IgG2, kappa)
heavy: B15 heavy
light: B15 light
modifications: payload of chemical formula VI on one or more cysteine residues of the antibody at random positions (chain not stated); payload of chemical formula VI (pyrrolobenzodiazepine toxin + linking group, maleimide) on one or more cysteine residues of the antibody at random positions
notes: Antibody-drug conjugate; also called hD12-vc-VI

binding result [9]: binds
B18: hD12-IV (Antibody hD12 attached to the payload of chemical formula IV, stochastic conjugation) (antibody, human IgG2, kappa)
heavy: B15 heavy
light: B15 light
modifications: payload of chemical formula IV on one or more cysteine residues of the antibody at random positions (chain not stated); payload of chemical formula IV (pyrrolobenzodiazepine toxin + linking group, maleimide) on one or more cysteine residues of the antibody at random positions
notes: Antibody-drug conjugate; also called hD12-vc-IV

binding result [9]: binds
B19: hD12-VII (Antibody hD12 attached to the payload of chemical formula VII, stochastic conjugation) (antibody, human IgG2, kappa)
heavy: B15 heavy
light: B15 light
modifications: payload of chemical formula VII on one or more cysteine residues of the antibody at random positions (chain not stated); payload of chemical formula VII (pyrrolobenzodiazepine toxin + linking group, maleimide) on one or more cysteine residues of the antibody at random positions
notes: Antibody-drug conjugate; also called hD12-vc-VII
